Data set [1] has as its target T1, Isl1 homeodomain (Isl1-HD) (UniProt P61372 181-240).
T1 sequence: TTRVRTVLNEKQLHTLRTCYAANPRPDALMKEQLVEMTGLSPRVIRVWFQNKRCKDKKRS
In words: EMSA; 0-1 uM Isl1; 40 mM KCl, 15 mM HEPES pH 8.0, 1 mM EDTA, 0.5 mM DTT, 2 mM MgCl2, 5% glycerol, 10 ng/ul poly dI/dC, 0.1 mg/ml BSA, 30 min, RT; 4% PAGE in 0.5x TBE. The conditions noted are these: protein: recombinant; tags: 6xHis; label: biotin (PCR primers); blunt.

The target of data set [2] is T1, Isl1 homeodomain (Isl1-HD). In words: competition; 80x excess vs free and nucleosomal Ttn DNA, 0.5 uM Isl1; 40 mM KCl, 15 mM HEPES pH 8.0, 1 mM EDTA, 0.5 mM DTT, 2 mM MgCl2, 5% glycerol, 10 ng/ul poly dI/dC, 0.1 mg/ml BSA, 30 min, RT; 4% PAGE in 0.5x TBE. The settings on record: protein: recombinant; tags: 6xHis; blunt.

B1: free Ttn DNA (dsDNA)
DNA 1: CGGTGTCTGCTATCACTCAGTTTCATCCCTTTCTTCCCAAATGGCCAGTTTCATGTTGTGTATCTTGACAGTGACTCCCAACCAGAGACTCCTGTTAAGGGAACTTGTCAGTCATAATAGACAATAAGTGAACTTCTTGTTCGGGGTGCTCAATAATTTGCT
DNA 2: AGCAAATTATTGAGCACCCCGAACAAGAAGTTCACTTATTGTCTATTATGACTGACAAGTTCCCTTAACAGGAGTCTCTGGTTGGGAGTCACTGTCAAGATACACAACATGAAACTGGCCATTTGGGAAGAAAGGGATGAAACTGAGTGATAGCAGACACCG
Take B1: the binding result in data set [1] was “binds”.

B2: specific competitor (Insulin enhancer) (dsDNA)
DNA 1: CCCTTGTTAAGACTCTAATTACCCTAG
DNA 2: CTAGGGTAATTAGAGTCTTAACAAGGG
As for B2, in data set [2], the binding result is given as “binds”.

B3: nonspecific competitor (NS) (dsDNA)
DNA 1: CAAGCAAAACAAACCA
DNA 2: TGGTTTGTTTTGCTTG
B3: the binding result in data set [2] was “no binding”.

(Values after article PMC6796926, “Pioneering function of Isl1 in the epigenetic control of cardiomyocyte cell fate”.)
